Test results as given in patent publication US20240343810A1 (published 2024).

T1: human ICOS expressed on cells (human, UniProt Q9Y6W8 21-199)
T1 sequence: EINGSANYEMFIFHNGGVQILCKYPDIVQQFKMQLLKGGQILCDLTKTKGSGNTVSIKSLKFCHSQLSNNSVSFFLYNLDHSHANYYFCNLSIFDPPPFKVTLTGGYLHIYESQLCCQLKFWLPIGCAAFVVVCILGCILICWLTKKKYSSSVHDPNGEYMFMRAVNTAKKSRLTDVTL

T2: Biotinylated human ICOS protein (human, UniProt Q9Y6W8 21-140, limits assumed, biotinylated (sites not given))
T2 construct: Captured on the NLC chip in the avidity SPR
T2 sequence: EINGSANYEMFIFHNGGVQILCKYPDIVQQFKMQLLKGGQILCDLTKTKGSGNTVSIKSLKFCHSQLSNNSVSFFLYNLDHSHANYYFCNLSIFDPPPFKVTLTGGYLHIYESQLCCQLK

T3: mouse ICOS expressed on CHO cells (mouse, UniProt Q9WVS0 21-200)
T3 construct: also called CHO-S cells transfected with mouse ICOS; mICOS
T3 sequence (looked up): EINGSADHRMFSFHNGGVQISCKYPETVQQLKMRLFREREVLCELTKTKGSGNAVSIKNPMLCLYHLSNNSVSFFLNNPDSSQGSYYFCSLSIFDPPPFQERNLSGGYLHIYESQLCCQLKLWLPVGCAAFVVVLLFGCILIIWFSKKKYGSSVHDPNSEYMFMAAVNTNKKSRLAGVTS

T4: human ICOS-mFc (Chimerigen) (human, UniProt Q9Y6W8 21-140)
T4 construct: Bought; also called recombinant human ICOS protein; hICOS; not shown: mouse Fc of the bought fusion
T4 sequence: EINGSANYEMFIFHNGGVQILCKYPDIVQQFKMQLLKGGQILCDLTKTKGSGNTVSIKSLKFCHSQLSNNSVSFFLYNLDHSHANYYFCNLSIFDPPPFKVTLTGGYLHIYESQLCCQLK

T5: mouse ICOS-mFc (Chimerigen) (mouse, UniProt Q9WVS0 21-141, limits assumed)
T5 construct: Bought; also called recombinant mouse ICOS protein; mICOS; not shown: mouse Fc of the bought fusion
T5 sequence: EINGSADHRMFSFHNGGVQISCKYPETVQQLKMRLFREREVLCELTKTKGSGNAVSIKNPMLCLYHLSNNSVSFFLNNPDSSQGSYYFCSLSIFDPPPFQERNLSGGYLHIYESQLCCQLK


Assays:
[1] = biological target: T1, human ICOS expressed on cells; test: cell-based or functional assay
[2] = biological target: T2, Biotinylated human ICOS protein; test: SPR ProteOn avidity format, biotinylated human ICOS on NLC chip, antibody analyte; apparent KD from equilibrium, 25 C
Procedure: Biotinylated human ICOS protein diluted at 7.5 μg/mL in running buffer (1× HBS-EP+ Buffer Technova, cat. No. H8022) was captured on a NLC sensor chip (Bio-Rad, cat No 1765021). The surface was then blocked using biocytin (Sigma Aldrich, cat No B1758) at 1 mg/mL.
The assay was carried out at 25° C.
The buffer injection (i.e. 0 nM) was used to double reference the sensorgrams. The analysis was carried out using the equilibrium model inherent to the ProteOn's analysis software for each mAb² construct.

[3] = biological target: T3, mouse ICOS expressed on CHO cells; test: Flow cytometry on CHO-S mouse ICOS cells, anti-human IgG AF647, mean
Procedure: (§1) CHO—S cells transfected with either human ICOS or mouse ICOS were resuspended in FACS buffer (PBS+1% w/v BSA+0.1% w/v sodium azide) and transferred to a 96-well V-bottom plate (Greiner) at a density of 1×10⁵ cells per well. mAb and mAb² were titrated in FACS buffer, 1 in 3 dilution across 11 points from a starting working concentration of 400 nM. Plates were centrifuged at 300×g for 3 minutes, supernatant discarded and 50 μL mAb or mAb² solution were added to cells and incubated at 4° C. for 1 hour. Cells were washed with 150 μL of PBS and centrifuged at 300×g for 3 minutes, supernatant was discarded and cell pellet resuspended in 150 μL PBS added. This wash step was repeated twice. Bound mAb or mAb² was detected by addition of 50 μL of anti-human 647 (Jackson ImmunoResearch) diluted to 3 ug/ml in FACS buffer. Cells were incubated for 1 hour at 4° C. in the dark. Cells were washed with 150 μL of PBS and centrifuged at 300 g for 3 minutes, supernatant was discarded and cell pellet resuspended in 150 μL PBS added. This wash step was repeated twice. Cells were fixed with 25 μL 4% v/v paraformaldehyde, incubated for 20 minutes at 4° C., cells were pelleted by centrifugation at 300×g and the supernatant discarded. […] AlexaFluor 647 signal intensity (geometric mean) was measured by flow cytometry using a Beckman Coulter CytoFLEX instrument.

[4] = biological target: T4, human ICOS-mFc (Chimerigen); test: HTRF, human ICOS-mFc, competitor human B7-H2-Alexa 647, n3
Procedure: (§2) 5 μl of human ICOS-mFc (Chimerigen) at 20 nM (5 nM final) or 5 ul of mouse ICOS-mFc (Chimerigen) at 4 nM (1 nM final) were added to relevant assay wells. Plate was incubated for 1 hour (hr) at room temperature (RT).
(§3) After incubation, assay was read on Envision plate reader (Perkin Elmer) using a standard HTRF protocol. 620 nm and 665 nm channel values were exported to Microsoft Excel and % Delta-F and % Neutralisation calculations performed. Titration curves and IC50 values [M] were plotted using Graphpad (Prism). IC50 values were calculated by first transforming the data using equation X=Log(X). The transformed data was then fitted using nonlinear regression, using fitting algorithm, log (inhibitor) vs. response—variable slope (four parameters).

[5] = biological target: T3, mouse ICOS expressed on CHO cells; test: Flow cytometry on CHO-S mouse ICOS cells, anti-human IgG AF647, N=1
Procedure: as §1

[6] = biological target: T5, mouse ICOS-mFc (Chimerigen); test: HTRF, mouse ICOS-mFc, competitor mouse B7-H2-Alexa 647, n2
Procedure: as §2, §3

[7] = biological target: T5, mouse ICOS-mFc (Chimerigen); test: HTRF, mouse ICOS-mFc, competitor mouse B7-H2-Alexa 647, mean as told in the text (table prints 0.37)

EC50 of ADCC (specific dye release), ICOS-transfected CCRF-CEM + NK cells, Donor 326 [1] [pM]	EC50 of ADCC (specific dye release), ICOS-transfected CCRF-CEM + NK cells, Donor 334 [1] [pM]	EC50 of ADCC (specific dye release), ICOS-transfected CCRF-CEM + NK cells, Donor 341 [1] [pM]	EC50 of ADCC (specific dye release), ICOS-transfected CCRF-CEM + NK cells, column 'Median' [1] [pM]	Kd [2] [pM]	EC50 [3] [pM]	IC50 [4] [pM]	EC50 [5] [pM]	IC50 [6] [pM]	IC50 [7] [pM]	Binder
42.6	20.5	7.6	23.6	57100	16900	2330	25700	8910		STIM001 (antibody, human IgG1, kappa, Anti-ICOS monospecific antibody, tested as human IgG1; also called STIM001 monoclonal IgG1 antibody) heavy: not shown light: DIVMTQSPLSLPVTPGEPASISCRSSQSLLHSNEYNYLDWYLQKPGQSPQLLIFLGSNRASGVPDRFSGSGSGTDFTLKITRVEAEDVGIYYCMQSLQTPLTFGGGTKVEIKRTVAAPSVFIFPPSDEQLKSGTASVVCLLNNFYPREAKVQWKVDNALQSGNSQESVTEQDSKDSTYSLSSTLTLSKADYEKHKVYACEVTHQGLSSPVTKSFNRGEC
21.2	3.7	6.7	10.5		5420	710	6800	140	120	STIM003 (antibody, human IgG1, kappa, Anti-ICOS monospecific antibody, tested as human IgG1; also called STIM003 monoclonal IgG1 antibody) heavy: not shown light: EIVLTQSPGTLSLSPGERATLSCRASQSVSRSYLAWYQQKRGQAPRLLIYGASSRATGIPDRFSGDGSGTDFTLSISRLEPEDFAVYYCHQYDMSPFTFGPGTKVDIKRTVAAPSVFIFPPSDEQLKSGTASVVCLLNNFYPREAKVQWKVDNALQSGNSQESVTEQDSKDSTYSLSSTLTLSKADYEKHKVYACEVTHQGLSSPVTKSFNRGEC
